Patent publication US12527821B2, “Compositions and methods related to tumor cell killers and vaccines” (THE BRIGHAM AND WOMEN'S HOSPITAL, INC., priority 2018, dated 2026)

B1: TNF-related apoptosis-inducing ligand (protein, listed as Homo sapiens)
chain: MAMMEVQGGPSLGQTCVLIVIFTVLLQSLCVAVTYVYFTNELKQMQDKYSKSGIACFLKEDDSYWDPNDEESMNSPCWQVKWQLRQLVRKMILRTSEETISTVQEKQQNISPLVRERGPQRVAAHITGTRGRSNTLSSPNSKNEKALGRKINSWESSRSGHSFLSNLHLRNGELVIHEKGFYYIYSQTYFRFQEEIKENTKNDKQMVQYIYKYTSYPDPILLMKSARNSCWSKDAEYGLYSIYQGGIFELKENDRIFVSVTNEHLIDMDHEASFFGAFLVG
notes: death receptor (DR4/5) ligand used to treat cancer cell lines

Key:
rGBMi2-TK cells = assay: GCV-induced clearance of HSV-TK engineered rGBM in vitro (cell viability); assay type: cell-based, human; conditions: in comparison to controls
Description: Cell viability and caspase assays: Tumor cells were plated in 96-well plates and treated with different doses of S-TRAIL for 24 hours and different doses of GCV for up to 96 hours. Cell viability was measured using an ATP-dependent luminescent reagent (CellTiter Glo, Promega) for non-Fluc expressing cells, or with luciferin or coelenterazine for Fluc- and Rluc-expressing cells, respectively. Caspase activity was determined using a DEVD-aminoluciferin assay (Caspase-3/7 Glo, Promega) according to the manufacturer's instructions. Experiments were performed in triplicate.

[1] = test system: 293 Ts engineered with LV-IFNβ/zeo-HSV/TK; assay: Cell viability after GCV treatment; assay type: cell-based
[2] = test system: CT2a-GMCSF-mIFNaR1KO engineered with LV-IFNβ/zeo-HSV/TK; assay: Cell viability after GCV treatment; assay type: cell-based, mouse
Excerpt: FIG. 2A details the concept to test if CT2a-IFNaR1-KO can be engineered with LV-IFNβ/zeo-HSV/TK.

rGBMnDR4/5-ST-TK-GF1 = assay: Intracranial implantation of sECM-encapsulated rGBMnDR4/5-ST-TK-GF1 in SCID mice, growth and GCV clearance (BLI); assay type: in vivo
Excerpt: (1) Nodular recurrent GBM resection model: Local retention of therapeutic cells can be achieved by encapsulation of therapeutic cells into biodegradable synthetic extracellular matrix (sECM) before implantation into the resection cavity (16).

rGBMnDR4/5-ST-TK = assay: GCV titration of DR4/5 knockout line with HSV-TK in vitro; assay type: cell-based, human; conditions: as opposed to non-TK control lines
Description: (§1) Thus, should tumors acquire a DRL-resistant phenotype during adjuvant clinical therapy and tumor recurrence, TK-induced bystander effect of therapeutic self-cells might still provide robust treatment efficacy.
(§2) Lentiviral transductions and engineering of stable cell lines: Lentiviral packaging was performed by transfection of 293T cells as previously described (73), and cells were transduced with lentiviral vectors at M.O.I of 2 in medium containing protamine sulfate (2 μg/ml). For bioluminescence imaging, cancer cells were transduced with LV-Pico2-Fluc-mCherry, LV-Pico2-Rluc-mCherry, or LV-Pico2-Fluc-GFP and selected by FACS using a BD FACSAriaTM Fusion cell sorter or puromycin selection (1 μg/ml) in culture. GFP or mCherry expression was visualized by fluorescence microscopy. […] Cell viability was measured using an ATP-dependent luminescent reagent (CellTiter Glo, Promega) for non-Fluc expressing cells, or with luciferin or coelenterazine for Fluc- and Rluc-expressing cells, respectively. Caspase activity was determined using a DEVD-aminoluciferin assay (Caspase-3/7 Glo, Promega) according to the manufacturer's instructions. Experiments were performed in triplicate. […]

rGBMiDR4/5-ST-TK = assay: as above; assay type: cell-based, human; conditions: as opposed to non-TK control lines
Description: as §1, §2

rGBMi2-ST-TK = assay: 18F-FHBG PET imaging of GCV-induced cell clearance; assay type: in vivo, mice; conditions: after 10 days of daily GCV treatment
Description: PET imaging: Mice implanted intracranially with rGBMi2-TK-GF1 were fasted for 4 hours before imaging, anesthetized with 2% isoflurane and 100% oxygen, and injected with 500 μCi of 18F-FHBG via the tail vein. Two hours later, a static dataset was acquired for 60 minutes in 1 bed position (FOV 4.2 cm) using an energy window of 250-700 keV for each mouse. Images were reconstructed using a 2D OSEM algorithm with 2 iterations and 16 subsets. For measuring the mean and maximum standardized uptake values (SUVmean and SUVmax) and metabolic tumor volume (MTV), three-dimensional (3D) regions of interest were drawn over the mouse brain, and uptake values were measured using the explore Vista software (GE Healthcare). The maximum intensity projection images were generated using ImageJ. After the baseline PET scan at day 0, mice were treated daily with GCV (10 mg/kg) and imaged again by PET at day 10 after GCV treatment.

[3] = test system: panel of different cancer cell lines; assay: Screen of receptor-targeted ligands/antagonists on a panel of cancer cell lines; assay type: cell-based, human; conditions: 72 hours after treatment; versus TSP, Nb, IL24
Excerpt: To investigate the therapeutic efficacy of receptor-targeted molecules, the Inventors tested a panel of different cancer cell lines for their susceptibility to treatment with cell surface receptor ligands/antagonists targeting CD36 (thrombospondin-1, TSP), epidermal growth factor receptor (EGFR) (EGFR-blocking nanobody, Nb), heterodimeric interleukin 20 receptor (IL20R) comprised of subunits α and β (interleukin 24, IL24), and DRs (TRAIL) (FIG. 6 C). A nodular (n) and an invasive (i) GBM cell line (Gli36Δ-EGFR and GBM8, respectively) were screened and found to be DR ligand (DRL)-sensitive(s) (herein referred to as sGBMn and sGBMi). […]
as §2, with “For bioluminescence imaging, cancer cells were transduced with LV-Pico2-Fluc-mCherry, LV-Pico2-Rluc-mCherry, or LV-Pico2-Fluc-GFP and selected by FACS using a BD FACSAriaTM Fusion cell sorter or puromycin selection (1 μg/ml) in culture.” left out, “instructions.” for “instructions. Experiments were performed in triplicate.”

GBM46 (rGBMi3) = assay: TRAIL sensitivity screen/titration (cell viability); assay type: cell-based, human
Excerpt: (§3) To investigate the therapeutic efficacy of receptor-targeted molecules, the Inventors tested a panel of different cancer cell lines for their susceptibility to treatment with cell surface receptor ligands/antagonists targeting CD36 (thrombospondin-1, TSP), epidermal growth factor receptor (EGFR) (EGFR-blocking nanobody, Nb), heterodimeric interleukin 20 receptor (IL20R) comprised of subunits α and β (interleukin 24, IL24), and DRs (TRAIL) (FIG. 6 C). A nodular (n) and an invasive (i) GBM cell line (Gli36Δ-EGFR and GBM8, respectively) were screened and found to be DR ligand (DRL)-sensitive(s) (herein referred to as sGBMn and sGBMi). The following non-GBM cancer lines were also identified as DRL-sensitive: PC3 (sPCm), Jurkat (sTCL), HCT116 (sCC), and MDA231-BrM2a (sBCm). […] In addition to the above DRL-sensitive(s) cell lines, three DRL-resistant (r) GBM cell lines were identified (GBM23, GBM64, GBM46, herein referred to as rGBMi1, rGBMi2, rGBMi3) (FIG. 6D). Based on these findings, DR4 and DR5 were chosen as the most suitable candidates to further investigate the therapeutic potential of receptor self-targeted therapies.
(§4) Lentiviral transductions and engineering of stable cell lines: Lentiviral packaging was performed by transfection of 293T cells as previously described (73), and cells were transduced with lentiviral vectors at M.O.I of 2 in medium containing protamine sulfate (2 μg/ml). For bioluminescence imaging, cancer cells were transduced with LV-Pico2-Fluc-mCherry, LV-Pico2-Rluc-mCherry, or LV-Pico2-Fluc-GFP and selected by FACS using a BD FACSAriaTM Fusion cell sorter or puromycin selection (1 μg/ml) in culture. GFP or mCherry expression was visualized by fluorescence microscopy. […] Cell viability was measured using an ATP-dependent luminescent reagent (CellTiter Glo, Promega) for non-Fluc expressing cells, or with luciferin or coelenterazine for Fluc- and Rluc-expressing cells, respectively. Caspase activity was determined using a DEVD-aminoluciferin assay (Caspase-3/7 Glo, Promega) according to the manufacturer's instructions. Experiments were performed in triplicate. For treatments with conditioned medium, plasmid vectors coding for secretable expression of CD36-targeting ligand 3TSR (a functional thrombospondin-1, TSP-1 analog) (09), EGFR-blocking ligand NB (12), IL-20Rα/β-targeting ligand IL-24 (69), and DR ligand S-TRAIL (69) were transfected into 293T cells. Medium was changed the next day, collected 40 hours after transfection, and frozen at −80° C. until further use.

Jurkat (sTCL) = assay: as above; assay type: cell-based, human
Excerpt: as §3, §4

PC3 (sPCm) = assay: as above; assay type: cell-based, human
Excerpt: as §3, §4

HCT116 (sCC) = assay: as above; assay type: cell-based, human
Excerpt: as §3, §4

MDA231-BrM2a (sBCm) = assay: as above; assay type: cell-based, human
Excerpt: as §3, §4

Gli36Δ-EGFR (sGBMn) = assay: as above; assay type: cell-based, human; conditions: nodular GBM cell line
Excerpt: as §3, §4

GBM23 (rGBMi1) = assay: as above; assay type: cell-based, human
Excerpt: as §3, §4

GBM64 (rGBMi2) = assay: as above; assay type: cell-based, human
Excerpt: as §3, §4

GBM8 (sGBMi) = assay: as above; assay type: cell-based, human; conditions: invasive GBM cell line
Excerpt: as §3, §4

| Molecule | elimination of rGBMi2-TK cells (rGBMi2-TK cells) | cell-viability after GCV-treatment [1] | cell-viability after GCV-treatment [2] | time to drop of BLI signal back to baseline (rGBMnDR4/5-ST-TK-GF1; after initiation of GCV therapy) | GCV-induced (HSV-TK mediated) cell clearance (rGBMnDR4/5-ST-TK-GF1; mouse, in vivo) | cell elimination by GCV (rGBMnDR4/5-ST-TK) | cell elimination by GCV (rGBMiDR4/5-ST-TK) | tumor-specific PET signal intracranially (rGBMi2-ST-TK) | efficacy in comparison to the other tested ligands [3] | susceptibility to DR ligand (DRL) (GBM46 (rGBMi3)) | susceptibility to DR ligand (DRL) (Jurkat (sTCL)) | susceptibility to DR ligand (DRL) (PC3 (sPCm)) | susceptibility to DR ligand (DRL) (HCT116 (sCC)) | susceptibility to DR ligand (DRL) (MDA231-BrM2a (sBCm)) | susceptibility to DR ligand (DRL) (Gli36Δ-EGFR (sGBMn)) | susceptibility to DR ligand (DRL) (GBM23 (rGBMi1)) | susceptibility to DR ligand (DRL) (GBM64 (rGBMi2)) | susceptibility to DR ligand (DRL) (GBM8 (sGBMi)) |
| --- | --- | --- | --- | --- | --- | --- | --- | --- | --- | --- | --- | --- | --- | --- | --- | --- | --- | --- |
| Nc1nc2c(ncn2COC(CO)CO)c(=O)[nH]1 [GCV, Ganciclovir] | dose- and time-dependent elimination | dose-dependent reduction of cell-viability | dose-dependent reduction of cell-viability | ≤ 9 days | successful cell clearance | dose-dependent cell elimination | dose-dependent cell elimination | no longer visible | – | – | – | – | – | – | – | – | – | – |
| B1 | – | – | – | – | – | – | – | – | most effective agent | DRL-resistant | DRL-sensitive | DRL-sensitive | DRL-sensitive | DRL-sensitive | sensitive | DRL-resistant | DRL-resistant | sensitive |
